Assay results reported in the DeepSol protein solubility set.

Assay: soluble on expression in E. coli; label from the status in PepcDB or PDB records

Soluble on expression in E. coli, not soluble:
MGSDKIHHHHHHMRPDCTDFRQLFLDDVPMMDMRAPVEFAKGAFPGVVNLPLMNDQERQKVGTCYKQQGQAAAIALGHQLVSGATKQARLEAWAAFAKAHPDGYLYCFRGGLRSQIVQGWLRDEAGIQYPRVKGGYKAMRTFLLETTQQAVEQCDFVLVGGLTGTGKTDVLHQLDNVLDLEGHANHRGSSFGKRATAQPAQIDFENQLAIDVLKKRARGIGQFVLEDEGRIVGSCTVPLELYQGMQHYPLVWLEDSFTNRVERILRDYVVNLSAEFKAVHGEEDGPRLFAERMLQSMANIYKRLGGERHQRLSEMLREALQEQQRSGAVDLHRGWIEGLLNEYYDPMYAYQRAAKAERIEFAGDAVEVREYLKARALRQPRK, MGSDKIHHHHHHMRRKDATWILTAQCPSRLGTVDVVTRFLKECRCYITEQQSFDDRHGERFFIRTAFQPEETDFDADTFQAAFAARAAEFDMVFELTAPEARMPVVIMVSKADHCLNDLLYRYRTGQLPVTIRAVISNHPDLEPLVAWHDLPYYHLPITPETKAEQEAEVWRVIESTGAELVILARYMQVLSSELCEKLTGKAINIHHSLLPGFKGAKPYHQAFEKGVKLVGATAHYINDDLDEGPIITQGVEPVSHADDPEDLVAKGRDIECLTLARAVSLHLERRVFLHARRTVVFAR, MGSDKIHHHHHHMRRLPPLNALQIFATVARHRSFTRAADALCVTQGAISRQIQSLEAHYGFALFMRHARGLTLTVEGEQLLPVVVESFARIEDISLKLTRQRTDLALKVPTCVMRWVLPRIMRFQREHPDLHVQMTTTWRHDVDFQSEPFDAAIVYGMSPGPDVAAVPLFDERLTPVCAPDLLEGRPLARVEDLACHTLLHPTRDHRDWRRWLDYAGAAGVDPDRGPSFDSLDLATSAATQGFGVALGDLTLSEEDFAARRLAMPLDIVQRTGARYYFVYPESVAQQQKIQRFSAWLDANRD, MGSDKIHHHHHHMRVGIIGGGFGLAVQAPIINTHPKMNVSAISTMIRHQVPKNLSTADDSPVHYTDWTKMLDLEELDLVFVSSLPIYHFEMVKYALNKGIHVVCEKPFTMNSVESEELLRLSSDTNTKVFIDFEWRYHPARQKVKELISEVGDILHFEYHISASQYQKLQTNKRGWMGEKQKFGGMLGALGTHMVDCLRWLIQDEIITINGFIHTHVPEGPEELRDSDDAFFIHGKIEGNCTFSIQLISGIHHGFGSNLKVFGSLGTINLIDDKTLFFGKASESLEEIKIETYTQTIPPLSSEAKAYYPAFYPFLDKVYENIIFNKSDKDLPTIVDGHENQIIIDNVLSN, MGSDKIHHHHHHMRVRSVTEEDYLKIIQELVLYQDYAQLSDIAKSLQVKRQSARDEINHLIDLGMVKKIDRGKYVLTDQGDIEANIFLRKHRTAEVLLSQCVGIEWDAVDREAMGIEHGMTEEIIHRVIERFNAKRCPHGNPIPSPEGYVEKIDDVRITDLNETGDVIISRIIYETDEILNYLYANQILPGAKVKIIRTGFPLQIEKDGRLLSLDPSIAKAIRVSSIK, MGSDKIHHHHHHMRWNRMNPFGSYKKVVSARSTLKEVLKKAQDGGIVSTAFIYGLENNLLDGVIVADNAGEFKAVPKVATTPEEVLEAAGTKYTVCPNISVLKSAVREYGCEKIGVVGTPCQVRAVRKLMKYPVGFRHVPDKIALIIGIFCMENFPYYGLKLIVEEHCGVKMEDVVKMDIGKGKFWVYTRWGETKAIKLKETHPYEQIACHVCTDYTAELADISTGSVGSPDGWSTVFIRTAKGEEIFNKMVEDGYLEVKPIEEVKPGLGLVEKLALQKKEKNMKEIEHRKELGLPIPY, MGSDKIHHHHHHMRYIDLAEMCIADISSGKLVKNSRMPSLRNFRQQHSISMTTALNCYQYLESLGWILARPQSGYFVCGQRMANEKPELVAFKSIMTDPKLPVVKPYYQHGNSSACAIDSAHNTSANHSVYQPANKDIVGPLGVARISTDFIPLDKLQNSFRRALKRQGSNISFYPDIQGEKILRDTLSSHFKSYDFHIPSDELLITNGCMDAIQTAIEICTDFGDAVAISSPCFNGILDMLAALGRKVVEIPSTEQGIDLVQLEQHMKSNQIKAGLFCTSHMNPQGISMTALQKQHLVNLAQTYKIPIIEDDVYIELAHGKVMPLPAKHWDKHGYILWCGSVSKTIAAGYRLGWCWPGRFTEQYLQKRKYCNQGVSSPVQLGLADFISNGDYAKHLKKLRVAIQQHTLSYQRYLTKNLPVASKISDPSGGFVLWIQVPNLNGRKLLALATEGNIDIRIGEQFSTRDLYQDYFRVNTGFMITEGNDKDTREEVDSQINKLMKLVKVASSERI, MGSDKIHHHHHHMSAALSHWRRWPSVANYGKKRFDIHQSSLKKRQGLMTPHFFGFGSLVNTATHVYGNTRPARLEGWRRTWVRTPDRSMAFLSVTPAPGHVIEGLLAAVPNGDWAALDERETGYVRVDVTPQVAHDMAPAPQISLYQVPEESHDRNARDHKILLSYLDVVLRGYREVFGDTGAEAFMATTDGWDTPILNDRATPYYPRHQVMTPDEHALHDALIAEAGAQVLAGGE, MGSDKIHHHHHHMSAELPLVFSVTSGKGGVGKTNMSVNIACCLSRMGKRVVLLDADLGLANVDVVLGLAPPRNLFHLFHEGADLGSILCEMPYGFRILPASSGVGEMLSLSTGQKLDLLEAMDVLEDSVDYLLVDTGAGINDNVLYFNIAAQERIVVLTPEPTSLTDAYALIKVMKLNHGVEHFKVLVNMAGDMKAAREVFSRLYKACDHFLSGVSLDLLGYVPRDRTVRRAVVEQTPFCVLDSRSPASLAVQKVAETVQTWDVSASLDGNIKFFWKKLLFR, MGSDKIHHHHHHMSASSNRTIPVFQLYGETHQWPTPDLLHCESIAERSRLHDWHIRPHRHADLVHVLHIAHGDVNLTFEEGAQRLTGPLLIVVPAMTVHAFRFSRDVDGHIVTLAMPLARHIADTLHPQGQILARAAFYPLADQPERAPIATLVDQLDAEYRHPADGRDALLEALLNSLLVLASRRATRRQARPASRQHERGEAHLARFQQLIEAHYHQQPSIPEFAERLGISSAHLSAVCQRLAGRSAQQLLHERVLLEAKRHLTYTNMTIGQVAERLGFKEPAYFTRFFKRHVACSPKEFRQRQA, MGSDKIHHHHHHMSCIIPNIYSQPTDTNLWNILLSSGIPRHYQKGEFVFEKDQPSNGLICLKKGKVKVSSFFSEGSEKIFGILVAPALFGETETLDQGPRMVSATALTHVEIVAISGNKTKELIYTYPDIALSIIQSIGVKLRWTTLQAEDLSTQKIEYRLARLLLDFKHYGIFTSKNNDNCLMITHEELAHFIGTARSKVTTYLNEFAHKGLIRLRRGEIRILDTAGLNKYKYTHKSQA, MGSDKIHHHHHHMSDVKGKNMTKKKPVLKRFNYRLNKLHVKNLKGIKDFTLNFEKDKLVTGIVGINGSGKSTLIHALACAFKPIGKATSKDFNRLSHFFTPNKDASWEGSEFEIEFEFDELTIKPNSEPTKKLINHTEVYSKKQGKKVSRWLPIYGRRHERESAYIGLHDLATLSEDKNAGRYKEYETEDLAHEASDKIKEDLVYILGRNYNRLTTCLVKQKDKVHTLFGLVFNGVEYSEHSMGAGEKRLLTILSALHNPKLAKGGLLLIDEIDVLLHGMAFKRLIERIIKRANENKIEVIFSTHRETIIDFKNDLLIYGVLNTGKGVIPMPHTHPQVMQQLTGVRTVPIEIYVEDDLATSVIETLLYQKHATHYVNITKFGTWSNAFAILAGKILMDSDISETLCVLDGDVCNTIEERTSECQRHLNGDDKNEHRQSMLNHIVEFKLANIAPQGSGGSPEYNIKIMFESIESDDPRVVELQRYSREMQGLEDWHVYFDILAETSGIRTARDKVLEAISETGQWNDYIVEISNWLDEKLKIYLPVRVQEEENLVTV, MGSDKIHHHHHHMSEDIFDAIIVGAGLAGSVAALVLAREGAQVLVIERGNSAGAKNVTGGRLYAHSLEHIIPGFADSAPVERLITHEKLAFMTEKSAMTMDYCNGDETSPSQRSYSVLRSKFDAWLMEQAEEAGAQLITGIRVDNLVQRDGKVVGVEADGDVIEAKTVILADGVNSILAEKLGMAKRVKPTDVAVGVKELIELPKSVIEDRFQLQGNQGAACLFAGSPTDGLMGGGFLYTNENTLSLGLVCGLHHLHDAKKSVPQMLEDFKQHPAVAPLIAGGKLVEYSAHVVPEAGINMLPELVGDGVLIAGDAAGMCMNLGFTIRGMDLAIAAGEAAAKTVLSAMKSDDFSKQKLAEYRQHLESGPLRDMRMYQKLPAFLDNPRMFSGYPELAVGVARDLFTIDGSAPELMRKKILRHGKKVGFINLIKDGMKGVTVL
